This passage reports fraction (%) intradimer results from publication PMC2902799.

Common to all, as to test: cross-linking
The target of assay [1] is CheA M469C (single-cysteine mutant of cysteine-less CheA) (Salmonella typhimurium) (UniProt P09384).
The target in assay [2] is CheA Q10C/Q454C (dicysteine mutant of cysteine-less CheA) (Salmonella typhimurium) (UniProt P09384).
In assay [3] the target is CheA S514C (single-cysteine mutant of cysteine-less CheA) (Salmonella typhimurium) (UniProt P09384).
Assay [4] has as its target CheA Q125C (single-cysteine mutant of cysteine-less CheA) (Salmonella typhimurium) (UniProt P09384).
Assay [5] has as its target CheA G636C (single-cysteine mutant of cysteine-less CheA) (Salmonella typhimurium) (UniProt P09384).
The target in assay [6] is CheA E109C (single-cysteine mutant of cysteine-less CheA) (Salmonella typhimurium) (UniProt P09384).
Assay [7] deals with CheA R607C (single-cysteine mutant of cysteine-less CheA) (Salmonella typhimurium) (UniProt P09384).
Assay [8] addresses CheA Q10C/E425C (dicysteine mutant of cysteine-less CheA) (Salmonella typhimurium) (UniProt P09384).
In assay [9] the target is CheA Q10C (single-cysteine mutant of cysteine-less CheA) (Salmonella typhimurium) (UniProt P09384).
The target of assay [10] is CheA A114C (single-cysteine mutant of cysteine-less CheA) (Salmonella typhimurium) (UniProt P09384).
Assay [11] has as its target CheA Q10C/M469C (dicysteine mutant of cysteine-less CheA) (Salmonella typhimurium) (UniProt P09384).
Assay [12] deals with CheA Q10C/E311C (dicysteine mutant of cysteine-less CheA) (Salmonella typhimurium) (UniProt P09384).
Assay [13] deals with CheA E311C (single-cysteine mutant of cysteine-less CheA) (Salmonella typhimurium) (UniProt P09384).
Assay [14] has as its target CheA Q10C/S514C (dicysteine mutant of cysteine-less CheA) (Salmonella typhimurium) (UniProt P09384).
Assay [15] concerns the target CheA Q10C/E460C (dicysteine mutant of cysteine-less CheA) (Salmonella typhimurium) (UniProt P09384).
In assay [16] the target is CheA L627C (single-cysteine mutant of cysteine-less CheA) (Salmonella typhimurium) (UniProt P09384).
Assay [17] concerns the target CheA Q10C/E369C (dicysteine mutant of cysteine-less CheA) (Salmonella typhimurium) (UniProt P09384).
In assay [18] the target is CheA R171C (single-cysteine mutant of cysteine-less CheA) (Salmonella typhimurium) (UniProt P09384).
In assay [19] the target is CheA A37C (single-cysteine mutant of cysteine-less CheA) (Salmonella typhimurium) (UniProt P09384).
Assay [20] addresses CheA Q10C/D359C (dicysteine mutant of cysteine-less CheA) (Salmonella typhimurium) (UniProt P09384).
For assay [21], the target named is CheA Q596C (single-cysteine mutant of cysteine-less CheA) (Salmonella typhimurium) (UniProt P09384).
Assay [22] deals with CheA Q10C/S351C (dicysteine mutant of cysteine-less CheA) (Salmonella typhimurium) (UniProt P09384).

In the case of “CheA M469C (single-cysteine mutant of cysteine-less CheA) (from UniProt P09384 1-671) (enzyme)”, in [1], the fraction (%) intradimer came to 72%.
With “CheA Q10C/Q454C (dicysteine mutant of cysteine-less CheA) (from UniProt P09384 1-671) (enzyme)”, in [2], the fraction (%) intradimer worked out at 100%.
The substance “CheA S514C (single-cysteine mutant of cysteine-less CheA) (from UniProt P09384 1-671) (enzyme)” yielded a fraction (%) intradimer in [3] of 50%.
“CheA Q125C (single-cysteine mutant of cysteine-less CheA) (from UniProt P09384 1-671) (enzyme)” had a fraction (%) intradimer in assay [4] of 81%.
“CheA G636C (single-cysteine mutant of cysteine-less CheA) (from UniProt P09384 1-671) (enzyme)” gave a fraction (%) intradimer in assay [5] of 83%.
“CheA E109C (single-cysteine mutant of cysteine-less CheA) (from UniProt P09384 1-671) (enzyme)” came in with a fraction (%) intradimer in [6] of 82%.
In turn, “CheA R607C (single-cysteine mutant of cysteine-less CheA) (from UniProt P09384 1-671) (enzyme)” registered a fraction (%) intradimer in assay [7] of 100%.
“CheA Q10C/E425C (dicysteine mutant of cysteine-less CheA) (from UniProt P09384 1-671) (enzyme)” had a fraction (%) intradimer in assay [8] of 100%.
“CheA Q10C (single-cysteine mutant of cysteine-less CheA) (from UniProt P09384 1-671) (enzyme)” registered a fraction (%) intradimer in assay [9] of 100%.
In assay [10], “CheA A114C (single-cysteine mutant of cysteine-less CheA) (from UniProt P09384 1-671) (enzyme)” gave a fraction (%) intradimer of 84%.
As for “CheA Q10C/M469C (dicysteine mutant of cysteine-less CheA) (from UniProt P09384 1-671) (enzyme)”, the fraction (%) intradimer in [11] stood at 100%.
Substance “CheA Q10C/E311C (dicysteine mutant of cysteine-less CheA) (from UniProt P09384 1-671) (enzyme)” showed a fraction (%) intradimer in assay [12] of 87%.
In assay [13], “CheA E311C (single-cysteine mutant of cysteine-less CheA) (from UniProt P09384 1-671) (enzyme)” had a fraction (%) intradimer of 93%.
For “CheA Q10C/S514C (dicysteine mutant of cysteine-less CheA) (from UniProt P09384 1-671) (enzyme)”, in assay [14], the fraction (%) intradimer worked out at 49%.
In turn, “CheA Q10C/E460C (dicysteine mutant of cysteine-less CheA) (from UniProt P09384 1-671) (enzyme)” had a fraction (%) intradimer in assay [15] of 91%.
In [16], “CheA L627C (single-cysteine mutant of cysteine-less CheA) (from UniProt P09384 1-671) (enzyme)” came in with a fraction (%) intradimer of 100%.
In [17], “CheA Q10C/E369C (dicysteine mutant of cysteine-less CheA) (from UniProt P09384 1-671) (enzyme)” registered a fraction (%) intradimer of 81%.
In [18], “CheA R171C (single-cysteine mutant of cysteine-less CheA) (from UniProt P09384 1-671) (enzyme)” returned a fraction (%) intradimer of 100%.
Consider “CheA A37C (single-cysteine mutant of cysteine-less CheA) (from UniProt P09384 1-671) (enzyme)”, for which, in assay [19], the fraction (%) intradimer came out at 46%.
“CheA Q10C/D359C (dicysteine mutant of cysteine-less CheA) (from UniProt P09384 1-671) (enzyme)”: in assay [20], the fraction (%) intradimer was 86%.
The substance “CheA Q596C (single-cysteine mutant of cysteine-less CheA) (from UniProt P09384 1-671) (enzyme)” showed a fraction (%) intradimer in assay [21] of 100%.
“CheA Q10C/S351C (dicysteine mutant of cysteine-less CheA) (from UniProt P09384 1-671) (enzyme)” returned a fraction (%) intradimer in [22] of 100%.
